Measured values taken from PMC10397247.
Values belong to the binder of their own block, whether it stands above or below them.

Experiments:
[1] = target: T1, P9mSN; assay: two-hybrid library CCNG1;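 also: natural log of median RNA to DNA barcode read ratio; higher means stronger binding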
T1 chain: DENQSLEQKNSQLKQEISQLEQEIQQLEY

[2] = target: T2, P8mSN; assay: two-hybrid library CCNG1;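 also: natural log of median RNA to DNA barcode read ratio; higher means stronger binding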
T2 chain: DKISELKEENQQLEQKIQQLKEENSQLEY

[3] = target: T3, 4H2698-AA; assay: two-hybrid library CCmax; settings: mean of both orientations;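 also: natural log of median RNA to DNA barcode read ratio; higher means stronger binding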
T3 chain: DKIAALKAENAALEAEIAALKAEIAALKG

[4] = target: T4, 4H536-AA; assay: two-hybrid library CCmax; settings: mean of both orientations;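 also: natural log of median RNA to DNA barcode read ratio; higher means stronger binding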
T4 chain: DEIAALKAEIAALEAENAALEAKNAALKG

[5] = target: T5, 4H2162-AA; assay: two-hybrid library CCmax; settings: mean of both orientations;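 also: natural log of median RNA to DNA barcode read ratio; higher means stronger binding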
T5 chain: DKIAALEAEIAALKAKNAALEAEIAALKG

[6] = target: T6, 4H310-AA; assay: two-hybrid library CCmax; settings: mean of both orientations;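 also: natural log of median RNA to DNA barcode read ratio; higher means stronger binding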
T6 chain: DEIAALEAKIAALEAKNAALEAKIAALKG

[7] = target: T7, 4H629-AA; assay: two-hybrid library CCmax; settings: mean of both orientations
T7 chain: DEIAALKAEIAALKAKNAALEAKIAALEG

[8] = target: T8, 4H3016-AA; assay: two-hybrid library CCmax; settings: mean of both orientations
T8 chain: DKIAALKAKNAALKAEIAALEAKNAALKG

[9] = target: T9, 4H909-AA; assay: two-hybrid library CCmax; settings: mean of both orientations
T9 chain: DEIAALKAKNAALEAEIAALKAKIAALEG

[10] = target: T10, 4H3865-AA; assay: two-hybrid library CCmax; settings: mean of both orientations
T10 chain: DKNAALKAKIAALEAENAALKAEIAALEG

[11] = target: T11, 4H930-AA; assay: two-hybrid library CCmax; settings: mean of both orientations
T11 chain: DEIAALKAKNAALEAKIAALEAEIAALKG

[12] = target: T12, 4H3395-AA; assay: two-hybrid library CCmax; settings: mean of both orientations
T12 chain: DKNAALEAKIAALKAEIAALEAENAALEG

[13] = target: T13, 4H3165-AA; assay: two-hybrid library CCmax; settings: mean of both orientations
T13 chain: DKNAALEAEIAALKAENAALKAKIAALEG

[14] = target: T14, 4H745-AA; assay: two-hybrid library CCmax; settings: mean of both orientations
T14 chain: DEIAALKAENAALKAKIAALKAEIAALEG

[15] = target: T15, 4H2253-AA; assay: two-hybrid library CCmax; settings: mean of both orientations
T15 chain: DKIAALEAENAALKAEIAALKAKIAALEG

[16] = target: T16, 4H570-AA; assay: two-hybrid library CCmax; settings: mean of both orientations
T16 chain: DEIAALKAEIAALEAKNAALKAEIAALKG

[17] = target: T17, 4H891-AA; assay: two-hybrid library CCmax; settings: mean of both orientations
T17 chain: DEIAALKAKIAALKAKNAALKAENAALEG

[18] = target: T18, 4H2438-AA; assay: two-hybrid library CCmax; settings: mean of both orientations
T18 chain: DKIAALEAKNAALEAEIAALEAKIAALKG

[19] = target: T19, 4H2330-AA; assay: two-hybrid library CCmax; settings: mean of both orientations
T19 chain: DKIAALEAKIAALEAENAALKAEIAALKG

[20] = target: T20, 4H2389-AA; assay: two-hybrid library CCmax; settings: mean of both orientations
T20 chain: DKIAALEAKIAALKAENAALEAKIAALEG

[21] = target: T21, 4H3009-AA; assay: two-hybrid library CCmax; settings: mean of both orientations
T21 chain: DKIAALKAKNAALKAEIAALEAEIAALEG

[22] = target: T22, 4H3120-AA; assay: two-hybrid library CCmax; settings: mean of both orientations
T22 chain: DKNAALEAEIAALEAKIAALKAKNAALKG

[23] = target: T23, 4H1864-AA; assay: two-hybrid library CCmax
T23 chain: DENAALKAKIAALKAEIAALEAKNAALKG

[24] = target: T24, 4H458-AA; assay: two-hybrid library CCmax; settings: mean of both orientations
T24 chain: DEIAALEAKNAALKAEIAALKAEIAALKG

[25] = target: T25, 4H3410-AA; assay: two-hybrid library CCmax; settings: mean of both orientations
T25 chain: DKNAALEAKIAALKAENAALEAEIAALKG

[26] = target: T26, 4H485-AA; assay: two-hybrid library CCmax; settings: mean of both orientations
T26 chain: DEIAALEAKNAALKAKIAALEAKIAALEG

[27] = target: T27, 4H710-AA; assay: two-hybrid library CCmax; settings: mean of both orientations
T27 chain: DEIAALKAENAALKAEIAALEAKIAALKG

[28] = target: T28, 4H850-AA; assay: two-hybrid library CCmax; settings: mean of both orientations
T28 chain: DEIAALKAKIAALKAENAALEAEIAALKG

[29] = target: T29, 4H2725-AA; assay: two-hybrid library CCmax; settings: mean of both orientations
T29 chain: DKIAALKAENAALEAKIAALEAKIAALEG

[30] = target: T30, 4H2865-AA; assay: two-hybrid library CCmax; settings: mean of both orientations
T30 chain: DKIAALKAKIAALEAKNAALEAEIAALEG

[31] = target: T31, 4H2649-AA; assay: two-hybrid library CCmax; settings: mean of both orientations
T31 chain: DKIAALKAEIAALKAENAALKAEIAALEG

[32] = target: T32, 4H2473-AA; assay: two-hybrid library CCmax; settings: mean of both orientations
T32 chain: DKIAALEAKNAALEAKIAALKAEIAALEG

[33] = target: T33, 4H797-AA; assay: two-hybrid library CCmax; settings: mean of both orientations
T33 chain: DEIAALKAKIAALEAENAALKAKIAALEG

[34] = target: T34, 4H3590-AA; assay: two-hybrid library CCmax; settings: mean of both orientations
T34 chain: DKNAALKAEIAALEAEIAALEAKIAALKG

[35] = target: T35, 4H2109-AA; assay: two-hybrid library CCmax; settings: mean of both orientations
T35 chain: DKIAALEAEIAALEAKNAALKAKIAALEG

[36] = target: T36, 4H3381-AA; assay: two-hybrid library CCmax; settings: mean of both orientations
T36 chain: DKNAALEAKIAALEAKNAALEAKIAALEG

[37] = target: T37, 4H3753-AA; assay: two-hybrid library CCmax; settings: mean of both orientations
T37 chain: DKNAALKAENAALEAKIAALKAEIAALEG

[38] = target: T38, 4H3697-AA; assay: two-hybrid library CCmax; settings: mean of both orientations
T38 chain: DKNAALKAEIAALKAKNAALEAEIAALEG

[39] = target: T39, 4H94-AA; assay: two-hybrid library CCmax; settings: mean of both orientations
T39 chain: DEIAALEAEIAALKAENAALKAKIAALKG

[40] = target: T40, 4H3130-AA; assay: two-hybrid library CCmax; settings: mean of both orientations
T40 chain: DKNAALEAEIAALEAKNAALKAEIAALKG

[41] = target: T41, 4H2274-AA; assay: two-hybrid library CCmax; settings: mean of both orientations
T41 chain: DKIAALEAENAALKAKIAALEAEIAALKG

[42] = target: T42, 4H1877-AA; assay: two-hybrid library CCmax; settings: mean of both orientations
T42 chain: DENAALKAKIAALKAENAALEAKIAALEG

[43] = target: T43, 4H568-AA; assay: two-hybrid library CCmax
T43 chain: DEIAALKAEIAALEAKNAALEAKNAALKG

[44] = target: T44, 4H953-AA; assay: two-hybrid library CCmax; settings: mean of both orientations
T44 chain: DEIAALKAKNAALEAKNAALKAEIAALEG

[45] = target: T45, 4H967-AA; assay: two-hybrid library CCmax; settings: mean of both orientations
T45 chain: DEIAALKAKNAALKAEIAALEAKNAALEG

[46] = target: T46, 4H883-AA; assay: two-hybrid library CCmax; settings: mean of both orientations
T46 chain: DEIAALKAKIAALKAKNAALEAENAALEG

[47] = target: T47, 4H717-AA; assay: two-hybrid library CCmax; settings: mean of both orientations
T47 chain: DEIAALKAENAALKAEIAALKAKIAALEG

[48] = target: T48, 4H918-AA; assay: two-hybrid library CCmax; settings: mean of both orientations
T48 chain: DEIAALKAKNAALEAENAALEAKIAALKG

[49] = target: T49, 4H687-AA; assay: two-hybrid library CCmax; settings: mean of both orientations
T49 chain: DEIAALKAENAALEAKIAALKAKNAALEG

interaction score [1]: -1.04
interaction score [2]: -0.489
Binder: DKISELKEENQQLEQKIQQLKEENSQLEY [P8mSN]

interaction score [3]: -0.664
interaction score [4]: 0.437
interaction score [5]: -1.67
interaction score [6]: -1.48
interaction score [7]: -1.52
interaction score [8]: -1.47
interaction score [9]: -1.38
interaction score [10]: -1.65
interaction score [11]: -1.41
interaction score [12]: 0.321
interaction score [13]: -1.47
interaction score [14]: -1.35
interaction score [15]: -1.42
interaction score [16]: -0.57
interaction score [17]: -0.897
interaction score [18]: 0.434
interaction score [19]: -1.49
interaction score [20]: 0.806
interaction score [21]: -0.905
interaction score [22]: 0.774
interaction score [23]: 0.981
interaction score [24]: -1.21
interaction score [25]: -1.5
interaction score [26]: -0.878
interaction score [27]: 1.32
interaction score [28]: 0.223
interaction score [29]: -0.938
interaction score [30]: -1.19
interaction score [31]: -1.17
interaction score [32]: -1.22
interaction score [33]: -2.09
interaction score [34]: 1.23
interaction score [35]: -0.599
interaction score [36]: -1.63
interaction score [37]: 0.231
interaction score [38]: -1.57
interaction score [39]: -0.986
interaction score [40]: -0.716
interaction score [41]: -1.75
interaction score [42]: -1.45
Binder: DENAALKAKIAALKAEIAALEAKNAALKG [4H1864-AA]

interaction score [43]: -0.405
interaction score [44]: -1.78
interaction score [45]: -0.838
interaction score [46]: 2.12
interaction score [47]: -1.75
interaction score [33]: -1.39
interaction score [48]: -1.24
interaction score [49]: -1.51
Binder: DEIAALKAEIAALEAKNAALEAKNAALKG [4H568-AA]
